{"source": "patent US20260144882A1", "about": "(BIO THERA SOLUTIONS, published 2026)", "data": [{"target": "T1, human Nectin-4 extracellular antigen hNectin-4-His (human, UniProt Q96NY8 32-349)", "T1 construct": "C-terminal 8xHis tag included", "T1 sequence": "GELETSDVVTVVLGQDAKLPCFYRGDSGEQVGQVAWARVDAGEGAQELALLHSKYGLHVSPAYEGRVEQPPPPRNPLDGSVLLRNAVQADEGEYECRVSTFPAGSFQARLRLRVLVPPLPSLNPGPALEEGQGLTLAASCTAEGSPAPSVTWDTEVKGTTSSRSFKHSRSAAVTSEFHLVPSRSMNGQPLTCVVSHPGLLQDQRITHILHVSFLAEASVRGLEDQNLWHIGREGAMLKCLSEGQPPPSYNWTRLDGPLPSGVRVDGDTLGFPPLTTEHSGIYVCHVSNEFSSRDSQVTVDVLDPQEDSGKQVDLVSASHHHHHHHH", "test": "ELISA, phage scFv supernatant 1:50", "units": {"OD value": "OD"}, "values": [{"binder": "10F4-1G8 scFv (scFv, V domains shown, phage clone supernatant) VH: EVQLVESGGGLVQPGGSLRLSCAASGFNFSDFDMSWVRQAPGKGLEWVSVIKPSGDYINYADSVKGRFTISRDNSKNTLYLQMNSLRAEDTAVYYCAREYSDVVDYVSVRTPLDYWGQGTLVTVSS VL: DIQMTQSPSSLSASVGDRVTITCRASQGISSYLAWYQQKPGKAPKLLIYAASSLQSGVPSRFSGSGSGTDFTLTISSLQPEDFATYYCQQHYTTPPTFGQGTKVEIKR", "OD value": 1.52}, {"binder": "10F4-2C4 scFv (scFv, V domains shown, phage clone supernatant) VH: EVQLVESGGGLVQPGGSLRLSCAASGYSFGDYWMSWVRQAPGKGLEWVSVIDSGSGNKRYADSVKGRFTISRDNSKNTLYLQMNSLRAEDTAVYYCAREYSDVVDYVSVRTPLDYWGQGTLVTVSS VL: DIQMTQSPSSLSASVGDRVTITCRASQGISSYLAWYQQKPGKAPKLLIYAASSLQSGVPSRFSGSGSGTDFTLTISSLQPEDFATYYCQQHYTTPPTFGQGTKVEIKR", "OD value": 1.53}, {"binder": "10F4-2E6 scFv (scFv, V domains shown, phage clone supernatant) VH: EVQLVESGGGLVQPGGSLRLSCAASGFSFGDYWMSWVRQAPGKGLEWVSAIDQGKATSFYADSVKGRFTISRDNSKNTLYLQMNSLRAEDTAVYYCAREYSDVVDYVSVRTPLDYWGQGTLVTVSS VL: DIQMTQSPSSLSASVGDRVTITCRASQGISSYLAWYQQKPGKAPKLLIYAASSLQSGVPSRFSGSGSGTDFTLTISSLQPEDFATYYCQQHYTTPPTFGQGTKVEIKR", "OD value": 1.45}, {"binder": "10F4-2A5 scFv (scFv, V domains shown, phage clone supernatant) VH: EVQLVESGGGLVQPGGSLRLSCAASGYSFTDYDMSWVRQAPGKGLEWVSGIKTYKSDARYADSVKGRFTISRDNSKNTLYLQMNSLRAEDTAVYYCAREYSDVVDYVSVRTPLDYWGQGTLVTVSS VL: DIQMTQSPSSLSASVGDRVTITCRASQGISSYLAWYQQKPGKAPKLLIYAASSLQSGVPSRFSGSGSGTDFTLTISSLQPEDFATYYCQQHYTTPPTFGQGTKVEIKR", "OD value": 1.59}, {"binder": "10F4-2A1 scFv (scFv, V domains shown, phage clone supernatant) VH: EVQLVESGGGLVQPGGSLRLSCAASGYTFDDYDMSWVRQAPGKGLEWVSGIKAHSDNKRYADSVKGRFTISRDNSKNTLYLQMNSLRAEDTAVYYCAREYSDVVDYVSVRTPLDYWGQGTLVTVSS VL: DIQMTQSPSSLSASVGDRVTITCRASQGISSYLAWYQQKPGKAPKLLIYAASSLQSGVPSRFSGSGSGTDFTLTISSLQPEDFATYYCQQHYTTPPTFGQGTKVEIKR", "OD value": 1.76}, {"binder": "10F4-1H6 scFv (scFv, V domains shown, phage clone supernatant) VH: EVQLVESGGGLVQPGGSLRLSCAASGFNFYDYDMSWVRQAPGKGLEWVSGIKTHSGGNGYADSVKGRFTISRDNSKNTLYLQMNSLRAEDTAVYYCAREYSDVVDYVSVRTPLDYWGQGTLVTVSS VL: DIQMTQSPSSLSASVGDRVTITCRASQGISSYLAWYQQKPGKAPKLLIYAASSLQSGVPSRFSGSGSGTDFTLTISSLQPEDFATYYCQQHYTTPPTFGQGTKVEIKR", "OD value": 1.48}, {"binder": "10F4-1H11 scFv (scFv, V domains shown, phage clone supernatant) VH: EVQLVESGGGLVQPGGSLRLSCAASGYTFTGFWMSWVRQAPGKGLEWVSSISPDSGTKHYADSVKGRFTISRDNSKNTLYLQMNSLRAEDTAVYYCAREYSDVVDYVSVRTPLDYWGQGTLVTVSS VL: DIQMTQSPSSLSASVGDRVTITCRASQGISSYLAWYQQKPGKAPKLLIYAASSLQSGVPSRFSGSGSGTDFTLTISSLQPEDFATYYCQQHYTTPPTFGQGTKVEIKR", "OD value": 1.56}, {"binder": "10F4-2C6 scFv (scFv, V domains shown, phage clone supernatant) VH: EVQLVESGGGLVQPGGSLRLSCAASGFNFGGFDMSWVRQAPGKGLEWVSGIKQYKGYTSYADSVKGRFTISRDNSKNTLYLQMNSLRAEDTAVYYCAREYSDVVDYVSVRTPLDYWGQGTLVTVSS VL: DIQMTQSPSSLSASVGDRVTITCRASQGISSYLAWYQQKPGKAPKLLIYAASSLQSGVPSRFSGSGSGTDFTLTISSLQPEDFATYYCQQHYTTPPTFGQGTKVEIKR", "OD value": 1.52}, {"binder": "10F4-2C12 scFv (scFv, V domains shown, phage clone supernatant) VH: EVQLVESGGGLVQPGGSLRLSCAASGYNFGDYSMSWVRQAPGKGLEWVSVIDTTSAYTRYADSVKGRFTISRDNSKNTLYLQMNSLRAEDTAVYYCAREYSDVVDYVSVRTPLDYWGQGTLVTVSS VL: DIQMTQSPSSLSASVGDRVTITCRASQGISSYLAWYQQKPGKAPKLLIYAASSLQSGVPSRFSGSGSGTDFTLTISSLQPEDFATYYCQQHYTTPPTFGQGTKVEIKR", "OD value": 1.45}, {"binder": "10F4-2E8 scFv (scFv, V domains shown, phage clone supernatant) VH: EVQLVESGGGLVQPGGSLRLSCAASGFNFGNYDMSWVRQAPGKGLEWVSSIIPHGDYSFYADSVKGRFTISRDNSKNTLYLQMNSLRAEDTAVYYCAREYSDVVDYVSVRTPLDYWGQGTLVTVSS VL: DIQMTQSPSSLSASVGDRVTITCRASQGISSYLAWYQQKPGKAPKLLIYAASSLQSGVPSRFSGSGSGTDFTLTISSLQPEDFATYYCQQHYTTPPTFGQGTKVEIKR", "OD value": 1.38}, {"binder": "10F4-2E1 scFv (scFv, V domains shown, phage clone supernatant) VH: EVQLVESGGGLVQPGGSLRLSCAASGFTFTTYDMSWVRQAPGKGLEWVSGIKYSKYYTHYADSVKGRFTISRDNSKNTLYLQMNSLRAEDTAVYYCAREYSDVVDYVSVRTPLDYWGQGTLVTVSS VL: DIQMTQSPSSLSASVGDRVTITCRASQGISSYLAWYQQKPGKAPKLLIYAASSLQSGVPSRFSGSGSGTDFTLTISSLQPEDFATYYCQQHYTTPPTFGQGTKVEIKR", "OD value": 1.6}, {"binder": "10F4-1H4 scFv (scFv, V domains shown, phage clone supernatant) VH: EVQLVESGGGLVQPGGSLRLSCAASGFNFTNYWMSWVRQAPGKGLEWVSAISGTGGYTYYADSVKGRFTISRDNSKNTLYLQMNSLRAEDTAVYYCAREYSDVVDYVSVRTPLDYWGQGTLVTVSS VL: DIQMTQSPSSLSASVGDRVTITCRASQGISSYLAWYQQKPGKAPKLLIYAASSLQSGVPSRFSGSGSGTDFTLTISSLQPEDFATYYCQQHYTTPPTFGQGTKVEIKR", "OD value": 1.38}, {"binder": "10F4-2E4 scFv (scFv, V domains shown, phage clone supernatant) VH: EVQLVESGGGLVQPGGSLRLSCAASGYTFDSYWMSWVRQAPGKGLEWVSAIDGTDSVAYYADSVKGRFTISRDNSKNTLYLQMNSLRAEDTAVYYCAREYSDVVDYVSVRTPLDYWGQGTLVTVSS VL: DIQMTQSPSSLSASVGDRVTITCRASQGISSYLAWYQQKPGKAPKLLIYAASSLQSGVPSRFSGSGSGTDFTLTISSLQPEDFATYYCQQHYTTPPTFGQGTKVEIKR", "OD value": 1.43}, {"binder": "10F4-1H7 scFv (scFv, V domains shown, phage clone supernatant) VH: EVQLVESGGGLVQPGGSLRLSCAASGYSFDTYDMSWVRQAPGKGLEWVSGIKQYKGYTSYADSVKGRFTISRDNSKNTLYLQMNSLRAEDTAVYYCAREYSDVVDYVSVRTPLDYWGQGTLVTVSS VL: DIQMTQSPSSLSASVGDRVTITCRASQGISSYLAWYQQKPGKAPKLLIYAASSLQSGVPSRFSGSGSGTDFTLTISSLQPEDFATYYCQQHYTTPPTFGQGTKVEIKR", "OD value": 1.49}, {"binder": "10F4-1H1 scFv (scFv, V domains shown, phage clone supernatant) VH: EVQLVESGGGLVQPGGSLRLSCAASGYSFGNFDMSWVRQAPGKGLEWVSGIKQYKGYTSYADSVKGRFTISRDNSKNTLYLQMNSLRAEDTAVYYCAREYSDVVDYVSVRTPLDYWGQGTLVTVSS VL: DIQMTQSPSSLSASVGDRVTITCRASQGISSYLAWYQQKPGKAPKLLIYAASSLQSGVPSRFSGSGSGTDFTLTISSLQPEDFATYYCQQHYTTPPTFGQGTKVEIKR", "OD value": 1.61}]}]}
